The values that follow come from PMC4067515.

The target in this experiment is recombinant Bet v 1 trimer (birch). The experiment is described as follows: SEC. A general note: In gel filtration, larger molecules generally elute earlier.

As a reminder, the stoichiometry N is the number of molecules, sites or subunits per partner or assembly. Take recombinant Bet v 1 trimer: the stoichiometry N stood at 2.
